Test results as given in patent US20250092124A1 (YUNNAN BAIYAO GROUP, published 2025).

Experiments:
[1] = target: T1, GDF15-HIS (ACROBiosystems, CAT #: GD5-H5149) (human, UniProt Q99988 197-308); assay: ELISA, GDF15-HIS coated
T1 construct: Bought protein; also called GDF15 (ACROBiosystems, GD5-H5149); human GDF15; not shown: His tag
T1 sequence (looked up): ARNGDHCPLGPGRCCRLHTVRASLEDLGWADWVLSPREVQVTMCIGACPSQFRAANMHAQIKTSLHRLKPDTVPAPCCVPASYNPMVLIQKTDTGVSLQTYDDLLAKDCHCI
Description: The experiment was performed as detailed in Example 2, except that the coating protein was GDF15-HIS (ACROBiosystems, CAT #: GD5-H5149), and the antibodies to be tested (the humanized antibodies), negative control antibody (hIgG1), positive control antibodies Ponsegromab (Pfizer; Drug Bank: D11909) and AV380-hlgG1 (the heavy chain and light chain constant regions of AV380-mIgG1 were replaced with the constant regions of human IgG, i.e., SEQ ID NO. 5 and SEQ ID NO. 6) were added to each well of the coated plate.

cynoGDF15-mFC = target: T2, cynoGDF15-mFC (monkey (cyno); mouse, UniProt G7PWZ3 197-308); assay: ELISA, cynoGDF15-mFC coated
T2 construct: also called monkey GDF15 (cynoGDF15)
T2 sequence (looked up): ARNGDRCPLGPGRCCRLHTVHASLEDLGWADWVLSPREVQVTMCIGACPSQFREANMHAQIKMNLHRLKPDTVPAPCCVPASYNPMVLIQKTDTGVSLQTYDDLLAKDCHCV
Description: The experiment was performed as detailed in Example 2, except that the coating protein was cynoGDF15-mFC (GDF15: Genbank accession number EHH29815.1; mFC: Genbank accession number AAH31470.1), and the antibodies to be tested (the humanized antibodies), negative control antibody (hIgG1), and positive control antibodies Ponsegromab and AV380-hIgG1 were added to each well of the coated plate.

GDF3 (R&D, 5754-G3-010) = target: T3, GDF3 (R&D, 5754-G3-010) (UniProt Q9NR23 251-364); assay: ELISA, GDF3 coated at 1 µg/ml, HRP-anti-human IgG
T3 sequence (looked up): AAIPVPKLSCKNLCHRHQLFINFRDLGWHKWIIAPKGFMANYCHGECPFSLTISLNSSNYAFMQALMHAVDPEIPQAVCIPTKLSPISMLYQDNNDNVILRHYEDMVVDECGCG
Description: GDF15 (ACROBiosystems, GDS-HS149), GDF1 (R&D, 6937-GD-010), and GDF3 (R&D, 5754-G3-010) proteins were dissolved in PBS at a concentration of 1 μg/ml and were used to coat ELISA 96-well plate. On the next day, the 96-well plate was blocked with 2% BSA in PBS for 1 hour. After removing the blocking solution, GDF15 antibody 53E5 (hz), control antibody Ponsegromab and irrelevant hIgG1 were added at 4 μg/ml. After incubation at room temperature for 1 hour, the plate was washed, and then HRP-anti-human IgG was added. After incubation at room temperature for 1 hour, the HRP enzyme activity signal (OD450) was detected. The OD450 value is the relative signal of the antibody binding amount.

[2] = target: T1, GDF15-HIS (ACROBiosystems, CAT #: …); assay: ELISA in stability test, antibody after pH 3.6 for 2-4 h; coated antigen not named
Description: An appropriate amount of each antibody was taken and adjusted to 5 mg/mL in storage buffer adjusted to pH 3.6 using an ultrafiltration tube. The antibodies were placed at room temperature for 2-4 hours, then protein aggregation was detected using SEC-HPLC, and protein binding activity change was detected by ELISA.

[3] = target: T1, GDF15-HIS (ACROBiosystems, CAT #: …); assay: ELISA in stability test, antibody after 40 °C for 2 weeks; coated antigen not named
Description: An appropriate amount of each antibody was taken and adjusted to 10 mg/mL, and was placed at 40° C. for 1 and 2 weeks. Protein aggregation was detected using SEC-HPLC, and protein binding activity change was detected by ELISA.

[4] = target: T1, GDF15-HIS (ACROBiosystems, CAT #: …); assay: ELISA on human GDF15, antibody after 2 weeks at 37 °C in PBS; PBS, 37 C for 2 weeks (not plasma)
Description: […] of the antibodies to be tested (final concentration 1 mg/ml) were added to 200 μl of plasma and PBS, respectively, tightly sealed and placed at 37° C. for 2 weeks. The change of protein binding activity was detected by ELISA.

GDF15-mFC protein = target: T4, GDF15-mFC protein (human; mouse, UniProt Q99988 197-308); assay: blocking ELISA as in Example 4, GFRAL-hIgG1 Fc coated (competitor), GDF15-mFC mixed with antibody
T4 construct: extracellular domain;domain: IgG2a-FC; also called GDF15-mFc fusion protein
T4 sequence (looked up): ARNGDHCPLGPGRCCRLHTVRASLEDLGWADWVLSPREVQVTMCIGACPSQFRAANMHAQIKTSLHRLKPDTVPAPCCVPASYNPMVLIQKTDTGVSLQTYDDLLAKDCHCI
Description: A fusion protein comprising the extracellular region of GFRAL protein (Genbank accession number NM_207410.2) and human IgG1-FC (Genbank accession number CAC20454.1) was diluted to […] with coating solution, followed by adding to ELISA plate at 50 μl/well and incubating at 4° C. overnight. The solution in the wells was discarded and the plate was washed 3 times with washing solution, each time for 3-5 minutes, and dried via tapping. 200 μl of blocking solution was added to each well followed by incubating at 4° C. overnight. The plate was washed 3 times with washing solution, and the coated plate may be stored at −20° C. or 4° C. for future use.
The antibodies to be tested, positive control antibody AV380-mIgG1 and blank control (PBS) were added to the wells. […] At the same time, GDF15-mFC protein (GDF15: Genbank accession number NM_004864.3; mFC: Genbank accession number AAH31470.1) was added at 20 ng/well and mixed with the antibodies to be tested. The wells were incubated at 37° C. for 1 hour, washed, and dried via tapping. Then the enzyme-labeled secondary antibody, horseradish peroxidase-labeled goat anti-mouse IgG (SIGMA, catalog number A9044-2 ml) was added to each well, at a dilution of 1:10000, 50-100 μl/well. The wells were incubated at 37° C. for 2 hours, washed, and dried via tapping. 100 μl of freshly prepared developing solution TMB was added to each well and incubated at 37° C. for 30 minutes. 2 mol/L H₂SO₄ was added to terminate the reaction, and the OD value was obtained on an enzyme-linked immunosorbent reader.
The experiment was performed as detailed in Example 4, except that the antibodies to be tested (the humanized antibodies), negative control antibody (hIgG1), and positive control antibodies Ponsegromab and AV380-hIgG1 were added to each well of the coated plate.

B1: 53E5(hz) (antibody, human IgG1, kappa, V domains shown)
VH: QVQLQESGPGLVKPSETLSLTCTFSGFSLSTSGMGVGWIRQPPGKGLEWLAHILWDDVKRYNPALKSRLTISKDSSKSQISLKLSSVTAADTAVYYCVQMAWDWFAYWGQGTTVTVSS
VL: DIQMTQSPSSLSASVGDRVTITCKASQNVDTNVAWYQQKPGQSPKALIYSASYRSSGVPSRFSGSGSGTDFTLTISSLQPEDFATYYCQQYHSYPTFGQGTRLEIKR
notes: also called S3E5 (hz); humanized antibody 53E5
EC50 [1]: 0.0833 µg/mL
OD450.Max [1]: 1.05 OD450
EC50 (cynoGDF15-mFC): 0.0816 µg/mL
OD450.Max (cynoGDF15-mFC): 1.03 OD450
binding result (GDF3 (R&D, 5754-G3-010)): no binding (tested: 4 µg/ml)
EC50 [2]: 0.0699 µg/mL
EC50 [3]: 0.0573 µg/mL
EC50 [4]: 0.127 µg/mL
IC50 (GDF15-mFC protein): 0.253 µg/mL
OD450.Max (GDF15-mFC protein): 1.05 OD450
